Laboratory results taken from patent US20260146094A1 (CHIA TAI TIANQING PHARMACEUTICAL GROUP, published 2026).

Tests used:
[1] = biological target: T1, macaque c-Met on macaque epithelial cell 4MBr-5 (macaque); assay: flow cytometry on 4MBr-5 macaque epithelial cells
T1 construct: whole, on cells; also called 4MBr-5 cell

[2] = biological target: human c-Met on natural human tumor cell lines (H1993, MKN45, KP4, H441) (human, UniProt P08581 25-1390); assay: cell-based or functional assay
[3] = biological target: T2, Human c-Met-His (SinoBiological, product catalog No. 10692-H08H) (human, UniProt P08581 25-932); assay: competitive ELISA, coated human c-Met-His, blocking of HGFβ
T2 construct: Bought protein; also called human c-Met-His protein; c-Met-His protein; not shown: His tag
Experimental: (§1) After the plate was washed, an HRP-conjugated streptavidin (eBioscience, product catalog No. 18-4100-51) was added. The plate was incubated at 25° C. for 1 h and then washed 5 times, and a TMB substrate solution (TIANGEN, product catalog No. PA107) was added at 100 μL/well for color development. The light absorption signal values at the wavelength of 450 nm and the reference wavelength of 650 nm were measured. A curve (FIG. 2A) was fit, and the IC₅₀ values (Table 4) were calculated.
A curve (FIG. 2B) was fit based on the results, and the IC₅₀ values were calculated (Table 4).

[4] = biological target: T2, Human c-Met-His (SinoBiological, …); assay: competitive ELISA, coated human c-Met-His, blocking of biotin-HGF
Experimental: as §1

T2 sequence (P08581 25-932 limits assumed): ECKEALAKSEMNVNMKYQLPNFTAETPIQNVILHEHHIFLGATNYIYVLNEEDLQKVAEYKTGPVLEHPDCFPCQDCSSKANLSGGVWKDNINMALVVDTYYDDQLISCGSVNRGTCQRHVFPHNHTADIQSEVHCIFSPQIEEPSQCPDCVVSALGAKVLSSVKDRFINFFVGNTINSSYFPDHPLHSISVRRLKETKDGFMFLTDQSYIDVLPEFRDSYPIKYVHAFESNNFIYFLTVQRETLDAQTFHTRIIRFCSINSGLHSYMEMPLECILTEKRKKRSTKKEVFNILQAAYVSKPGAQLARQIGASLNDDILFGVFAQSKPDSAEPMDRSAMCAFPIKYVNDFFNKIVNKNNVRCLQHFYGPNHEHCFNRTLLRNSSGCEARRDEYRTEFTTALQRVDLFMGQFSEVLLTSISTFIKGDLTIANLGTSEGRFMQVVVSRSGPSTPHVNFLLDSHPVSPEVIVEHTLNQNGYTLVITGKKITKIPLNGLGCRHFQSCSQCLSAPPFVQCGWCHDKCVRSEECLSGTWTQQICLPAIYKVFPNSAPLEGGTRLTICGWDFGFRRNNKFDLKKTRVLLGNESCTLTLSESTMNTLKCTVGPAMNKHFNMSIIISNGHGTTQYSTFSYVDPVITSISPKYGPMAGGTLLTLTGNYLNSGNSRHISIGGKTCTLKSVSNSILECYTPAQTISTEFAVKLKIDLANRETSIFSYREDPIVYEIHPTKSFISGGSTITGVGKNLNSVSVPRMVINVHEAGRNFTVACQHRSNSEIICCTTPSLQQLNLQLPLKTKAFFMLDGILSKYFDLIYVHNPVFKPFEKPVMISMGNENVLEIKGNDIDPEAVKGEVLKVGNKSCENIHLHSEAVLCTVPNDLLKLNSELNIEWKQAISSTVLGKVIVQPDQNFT
human c-Met on natural human tumor cell lines (H1993, MKN45, KP4, H441), sequence (P08581 25-1390): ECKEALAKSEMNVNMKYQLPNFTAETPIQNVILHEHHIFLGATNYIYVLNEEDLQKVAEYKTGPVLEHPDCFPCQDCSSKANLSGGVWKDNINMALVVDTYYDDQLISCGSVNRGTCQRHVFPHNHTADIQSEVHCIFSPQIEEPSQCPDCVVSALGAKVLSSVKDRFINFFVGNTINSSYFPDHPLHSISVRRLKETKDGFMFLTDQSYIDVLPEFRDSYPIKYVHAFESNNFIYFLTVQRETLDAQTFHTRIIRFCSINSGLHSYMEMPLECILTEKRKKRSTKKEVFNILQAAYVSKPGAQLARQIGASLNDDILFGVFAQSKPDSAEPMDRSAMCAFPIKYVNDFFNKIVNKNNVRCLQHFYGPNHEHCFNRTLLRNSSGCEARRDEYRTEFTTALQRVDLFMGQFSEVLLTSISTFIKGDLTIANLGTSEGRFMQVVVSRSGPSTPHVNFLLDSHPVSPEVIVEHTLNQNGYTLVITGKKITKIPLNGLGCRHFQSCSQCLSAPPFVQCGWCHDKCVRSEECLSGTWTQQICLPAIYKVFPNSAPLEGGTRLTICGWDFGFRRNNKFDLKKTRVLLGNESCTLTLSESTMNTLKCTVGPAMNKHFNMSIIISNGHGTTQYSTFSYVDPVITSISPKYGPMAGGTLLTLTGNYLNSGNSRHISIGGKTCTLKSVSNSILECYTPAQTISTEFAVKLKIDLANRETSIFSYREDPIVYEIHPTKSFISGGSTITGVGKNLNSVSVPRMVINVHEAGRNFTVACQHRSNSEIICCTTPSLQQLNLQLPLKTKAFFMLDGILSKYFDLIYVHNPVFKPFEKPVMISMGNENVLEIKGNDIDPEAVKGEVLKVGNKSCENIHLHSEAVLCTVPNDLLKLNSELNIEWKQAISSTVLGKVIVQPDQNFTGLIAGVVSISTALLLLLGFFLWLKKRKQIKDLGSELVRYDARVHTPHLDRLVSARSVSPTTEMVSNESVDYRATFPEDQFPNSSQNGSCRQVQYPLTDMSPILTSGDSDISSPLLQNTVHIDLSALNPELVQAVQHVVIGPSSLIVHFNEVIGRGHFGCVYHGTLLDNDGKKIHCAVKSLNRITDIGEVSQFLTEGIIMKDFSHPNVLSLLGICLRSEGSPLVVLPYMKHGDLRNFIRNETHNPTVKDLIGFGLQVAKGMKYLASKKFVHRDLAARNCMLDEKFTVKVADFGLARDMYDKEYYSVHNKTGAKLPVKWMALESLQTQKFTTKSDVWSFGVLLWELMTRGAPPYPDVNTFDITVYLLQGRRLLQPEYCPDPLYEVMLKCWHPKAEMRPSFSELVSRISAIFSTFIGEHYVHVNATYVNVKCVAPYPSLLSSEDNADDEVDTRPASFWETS

Row | Binder | EC50 [1] [nM] | other results
1 | 1B-1B6-Fc (antibody, human IgG1, V domains shown, also called anti-human c-Met VHH-Fc chimeric antibody 1B-1B6-Fc) VH: QVQLVESGGDSVQAGGSLRLSCAASAHAYSSGCMGWFRQAPGKGREGVATIYTRNDFTYYSDSVKGRFTISRDDAKNTVYLQVNSLKAEDTAMYYCAAGSPFRYAGAWNVCGLKEEDYNYWGQGTLVTVSS | 0.682 | 
2 | 1B-1B2-Fc (antibody, human IgG1, V domains shown, also called anti-human c-Met VHH-Fc chimeric antibody 1B-1B2-Fc) VH: EVQLVESGGGSVQAGGSLRLSCTASGFTFDMGWYRQAPGDECELVSSISSDGNSDYLDSVKGRFTISQDNAKNTVYLQMNSLKPEDTAVYYCAANGAGHLVLRPLCGSNAVDAWGQGTLVTVSS | 0.418 | 
3 | 1B-1A8-Fc (antibody, human IgG1, V domains shown, also called anti-human c-Met VHH-Fc chimeric antibody 1B-1A8-Fc) VH: EVQLVESGGGLVQPGGSLRLSCVASGFTFKSYAMDWVRQAPGKGLEWIAGINSAGSPSYEASVKGRFTISRDNAENTLYLQLNSLKTEDTAMYYCTKCRDFRSPYCRPGQGTLVTVSS | 0.471 | Phosphorylation inhibition IC50 (nM), H441 cells, Phospho-c-Met (Tyr1234/1235) AlphaLISA [2]: 0.85 nM; Phosphorylation inhibition, Maximum inhibition rate, H441 cells [2]: 90%; IC50 [3]: 3.56 nM; Maximum blocking rate [3]: 75%; IC50 [4]: 3.14 nM; Maximum blocking rate [4]: 63%

Second part, led by results:

Row | EC50 [1] [nM] | Binder | other results
4 | 0.071 | 1B-1C7-Fc (antibody, human IgG1, V domains shown, also called anti-human c-Met VHH-Fc chimeric antibody 1B-1C7-Fc) VH: QVQLVESGGGLVQPGGSLRLSCAASGYSYSANCVGWFYQAPGKEREGVAAINTGGETATYADFVKGRFTISQDYAKNTVYLQMNSLKSEDTGMYYCAAVGTRKYWDECSLSQHAYKNWGQGTLVTVSS | 
5 | 0.736 | 1B-3B11-Fc (antibody, human IgG1, V domains shown, Expressed in CHO; also called anti-human c-Met VHH-Fc chimeric antibody 1B-3B11-Fc) VH: QVQLVESGGGSVQAGGSLRLSCVVSGYTYSSVAWFRQTPGKEREGVAVINPGGDNTDYTYAVKGRFTISRDSAKSTVFLQMNNLESEDTAMYYCAAGRTFGGTWMDRNKWKYWGQGTLVTVSS | 
6 | 0.284 | 3B-1C7-Fc (antibody, human IgG1, V domains shown, also called anti-human c-Met VHH-Fc chimeric antibody 3B-1C7-Fc) VH: QVQLVESGGDSVQAGGSLRLSCIASGFTFDGTTMGWYRQAPGDECELVSDISSDGNTYYSDSVKGRFTISQGNAKNTVYLQMNSLTPEDTAVYYCAAAEFRLLLRPLCRQDDYGYWGQGTLVTVSS | 
